{"source": "patent US20250129146A1", "about": "“COMBINED CANCER THERAPY WITH AN EPITHELIAL CELL ADHESION MOLECULE (EPCAM) INHIBITOR AND A WNT INHIBITOR” (ACADEMIA SINICA, priority 2021, published 2025)", "molecules": {"B1": {"name": "Wnt3A: recombinant Wnt3A (R & D systems) (protein, UniProt P56704 19-352, looked up)", "Protein Wnt-3a": "SYPIWWSLAVGPQYSSLGSQPILCASIPGLVPKQLRFCRNYVEIMPSVAEGIKIGIQECQHQFRGRRWNCTTVHDSLAIFGPVLDKATRESAFVHAIASAGVAFAVTRSCAEGTAAICGCSSRHQGSPGKGWKWGGCSEDIEFGGMVSREFADARENRPDARSAMNRHNNEAGRQAIASHMHLKCKCHGLSGSCEVKTCWWSQPDFRAIGDFLKDKYDSASEMVVEKHRESRGWVETLRPRYTYFKVPTERDLVYYEASPNFCEPNPETGSFGTRDRTCNVSSHGIDGCDLLCCGRGHNARAERRREKCRCVFHWCCYVSCQECTRVYDVHTCK"}, "B2": {"name": "EpAb2-6: anti-EpCAM (EpEX) neutralizing monoclonal antibody produced in mice by hybridoma; VH SEQ ID NO: 15, VL SEQ ID NO: 16 (antibody, V domains shown)", "VH": "VKLQESGPELKKPGETVKISCKASGYTFTDYSMHWVKQAPGKGLKWMGWINTETGEPTYADDFKGRFAFSLETSASTAYLQINNLKNEDTATYFCARTAVYWGQGTTVTVSS", "VL": "DIQMTQSPSSLSASLGERVSLTCRASQEISVSLSWLQQEPDGTIKRLIYATSTLDSGVPKRFSGSRSGSDYSLTISSLESEDFVDYYCLQYASYPWTFGGGTKLEIK"}, "B3": {"name": "EpEX: extracellular domain of EpCAM, produced in house by Expi293 Expression System (protein)", "chain": "QEECVCENYKLAVNCFVNNNRQCQCTSVGAQNTVICSKLAAKCLVMKAEMNGSKLGRRAKPEGALQNNDGLYDPDCDESGLFKAKQCNGTSMCWCVNTAGVRRTDKDTEITCSERVRTYWIIIELKHKAREKPYDSKSLRTALQKEITTRYQLDPKFITSILYENNVITIDLVQNSSQKTQNDVDIADVAYYFEKDVKGESLFHSKKMDLTVNGEQLDLDPGQTLIYYVDEKAPEFSMQGLKAGVIAVIVVVVIAVVAGIVVLVISRKKRMAKYEKAEIKEMGEMHRELNA"}}, "key": {"[1]": {"system": "colon cancer cells (SW620, HCT116)", "test": "Annexin-V/PI apoptosis assay", "assay_type": "cell-based, human", "procedure": "Cells were seeded in 24-well plate ([…] cells per well) overnight and then treated with 20 μg/mL mEpAb2-6, hEpAb2-6 or MT201, or […] LGK974 (MedChemExpress) or the combination for 24 hrs. Cell pellets were collected, and an apoptosis assay was performed using an Annexin-V/PI apoptosis kit (BD Biosciences). Results were read by flow cytometry analysis percentage apoptotic cells was calculated."}, "EpCAM": {"system": "EpCAM", "test": "Antibody binding to EpCAM wild-type, deletion and point mutants in HEK293T cells (immunofluorescence, flow cytometry, cellular ELISA)", "design": "species or system human", "settings": "mutations at EpCAM positions Y32 (EGF-I domain) or Y95 (EGF-II domain); HEK293T cells", "procedure": "FIGS. 18A to 18G. […] HEK293T cells were transfected with full length or EGF like-domain deletion mutant EpCAM-V5. Antibody binding was assessed by (FIG. 8A) Western blotting, (FIG. 8B) flow cytometry, and (FIG. 8C) immunofluorescence. (FIG. 8D) EpCAM mutants were constructed with amino acid substitutions in the EGF-I (Y32A) and EGF-II (L94A, Y95A, or D96A) domains. EpCAM wild-type and mutant proteins were expressed in HEK293T cells. Binding of MT201, EpAb2-6 and EpAb23-1 to EpCAM wild-type and mutants were evaluated by (FIG. 8E) immunofluorescence, (FIG. 8F) flow cytometry, and (FIG. 8G) cellular ELISA. All data are presented as mean±SEM. *, p<0.05; **, p<0.01.\nHere, we wanted to determine whether the antibody binds to EpCAM at both EGF-like domains of EpEX (FIG. 18A, FIG. 18B, FIG. 18C). To confirm that EpAb2-6 recognizes the LYD motif in EpCAM, we constructed cDNA sequences encoding the first (aa 27-59; EGF-I domain) and second (aa 66-135; EGF-II/TY domain) EGF-like repeats of EpCAM. PCR-based site-directed mutagenesis was then used to introduce mutations into each domain (FIG. 18D). The reactivity of EpAb2-6 antibody toward these EpCAM mutants was evaluated by immunofluorescence (FIG. 18E), flow cytometry (FIG. 18F), and cellular ELISA (FIG. 18G)."}, "[2]": {"system": "TACE and presenilin-2 (PS2)", "test": "Phosphorylation of ADAM17 (TACE) and Presenilin2 (western blot)", "assay_type": "cell-based, human", "settings": "HCT116 cells; EpEX, Wnt3A for 8 h", "procedure": "For western blotting, cells were extracted using radioimmunoprecipitation assay (RIPA) buffer [(0.01 M sodium phosphate, pH 7.2), 150 mM NaCl, 2 mM EDTA, 50 mM NaF, 1% Nonidet P-40, 1% sodium deoxycholate, and 0.1% SDS)] containing phosphatase inhibitor (Roche) and protease inhibitor (Roche) cocktail. Equal amounts of protein were separated by SDS-PAGE and then transferred to PVDF membranes. The membranes were blocked with 3% BSA in TBST (Blocking solution) and incubated with necessary primary antibodies in the blocking solution overnight at 4° C. Membranes were then incubated with HRP-conjugated secondary antibodies in the blocking solution for 1 h at room temperature, and protein expression were detected. Antibodies used: anti-α-tubulin (Sigma), anti-EpCAM (abeam), anti-Active β-Catenin (Millipore), anti-total β-Catenin (abeam), anti-Frizzled 6 (CST), anti-Frizzled 7 (Santa Cruz Biotech), anti-LRP5 (abcam), anti-Phospho-LRP5 (abcam), anti-Phospho-LRP6 (CST), anti-LRP6 (CST) and anti-EpEX antibody EpAb3-5 (Produced in house), anti-ADAM17 (abcam), anti-phopho-ADAM17 (abcam), anti-Presenilin2 (abcam), anti-phospho-Presenilin2 (S327) (abcam), anti-phospho-Presenilin2 (S330) (abcam) and anti-Axin2 (CST).\nTo study the kinase activity of GSK3 and CK1, 10^6 cells were seeded overnight and treated with GSK3 inhibitor BIO (Sigma) or CK1 inhibitor PF-670462 (selleckchem) for 8 h. […]"}, "Axin2": {"system": "Axin2", "test": "Wnt-target Axin2 expression (western blot, qPCR)", "assay_type": "cell-based, human", "settings": "HT29 and HCT116 cells; EpEX, Wnt3A or combination; protein and mRNA", "procedure": "For western blotting, cells were extracted using radioimmunoprecipitation assay (RIPA) buffer [(0.01 M sodium phosphate, pH 7.2), 150 mM NaCl, 2 mM EDTA, 50 mM NaF, 1% Nonidet P-40, 1% sodium deoxycholate, and 0.1% SDS)] containing phosphatase inhibitor (Roche) and protease inhibitor (Roche) cocktail. Equal amounts of protein were separated by SDS-PAGE and then transferred to PVDF membranes. The membranes were blocked with 3% BSA in TBST (Blocking solution) and incubated with necessary primary antibodies in the blocking solution overnight at 4° C. Membranes were then incubated with HRP-conjugated secondary antibodies in the blocking solution for 1 h at room temperature, and protein expression were detected. […]\nTotal RNA was extracted using TRI reagent and 5 μg of the total RNA was further reverse-transcribed using oligo (dT) primer with reverse transcriptase. Quantitative real time RT-PCR (qPCR) was performed on cDNA using the Light Cycler 480 SYBR Green-I Master kit and the LightCycler480 System. […]"}, "γ-secretase": {"system": "γ-secretase", "test": "γ-Secretase activity (luciferase reporter)", "assay_type": "cell-based, human", "settings": "HCT116 and HT29 cells; 250 ng/mL EpEX-His or 100 ng/mL Wnt3A for 8 h, or combination", "procedure": "The γ-secretase activity was measured using the protocol described by Liao et al (2004) (Liao et al., 2004). In brief, cells were transiently transfected with the control plasmid and tetracycline-inducible γ-secretase plasmid harboring luciferase (Liao et al., 2004) (the plasmids were generous gifts from Dr. Yung-Feng Liao, ICOB, Academia Sinica). Cells were treated with 250 ng/mL EpEX-His or 100 ng/mL Wnt3A (R&D Systems) for 8 h. Further, cells were lysed using passive lysis buffer and subjected to the luciferase assay."}, "recombinant LRP5": {"target": "T1, recombinant LRP5 (Homo sapiens, UniProt O75197)", "T1 construct": "purchased Proteintech", "T1 sequence (O75197 32-1615)": "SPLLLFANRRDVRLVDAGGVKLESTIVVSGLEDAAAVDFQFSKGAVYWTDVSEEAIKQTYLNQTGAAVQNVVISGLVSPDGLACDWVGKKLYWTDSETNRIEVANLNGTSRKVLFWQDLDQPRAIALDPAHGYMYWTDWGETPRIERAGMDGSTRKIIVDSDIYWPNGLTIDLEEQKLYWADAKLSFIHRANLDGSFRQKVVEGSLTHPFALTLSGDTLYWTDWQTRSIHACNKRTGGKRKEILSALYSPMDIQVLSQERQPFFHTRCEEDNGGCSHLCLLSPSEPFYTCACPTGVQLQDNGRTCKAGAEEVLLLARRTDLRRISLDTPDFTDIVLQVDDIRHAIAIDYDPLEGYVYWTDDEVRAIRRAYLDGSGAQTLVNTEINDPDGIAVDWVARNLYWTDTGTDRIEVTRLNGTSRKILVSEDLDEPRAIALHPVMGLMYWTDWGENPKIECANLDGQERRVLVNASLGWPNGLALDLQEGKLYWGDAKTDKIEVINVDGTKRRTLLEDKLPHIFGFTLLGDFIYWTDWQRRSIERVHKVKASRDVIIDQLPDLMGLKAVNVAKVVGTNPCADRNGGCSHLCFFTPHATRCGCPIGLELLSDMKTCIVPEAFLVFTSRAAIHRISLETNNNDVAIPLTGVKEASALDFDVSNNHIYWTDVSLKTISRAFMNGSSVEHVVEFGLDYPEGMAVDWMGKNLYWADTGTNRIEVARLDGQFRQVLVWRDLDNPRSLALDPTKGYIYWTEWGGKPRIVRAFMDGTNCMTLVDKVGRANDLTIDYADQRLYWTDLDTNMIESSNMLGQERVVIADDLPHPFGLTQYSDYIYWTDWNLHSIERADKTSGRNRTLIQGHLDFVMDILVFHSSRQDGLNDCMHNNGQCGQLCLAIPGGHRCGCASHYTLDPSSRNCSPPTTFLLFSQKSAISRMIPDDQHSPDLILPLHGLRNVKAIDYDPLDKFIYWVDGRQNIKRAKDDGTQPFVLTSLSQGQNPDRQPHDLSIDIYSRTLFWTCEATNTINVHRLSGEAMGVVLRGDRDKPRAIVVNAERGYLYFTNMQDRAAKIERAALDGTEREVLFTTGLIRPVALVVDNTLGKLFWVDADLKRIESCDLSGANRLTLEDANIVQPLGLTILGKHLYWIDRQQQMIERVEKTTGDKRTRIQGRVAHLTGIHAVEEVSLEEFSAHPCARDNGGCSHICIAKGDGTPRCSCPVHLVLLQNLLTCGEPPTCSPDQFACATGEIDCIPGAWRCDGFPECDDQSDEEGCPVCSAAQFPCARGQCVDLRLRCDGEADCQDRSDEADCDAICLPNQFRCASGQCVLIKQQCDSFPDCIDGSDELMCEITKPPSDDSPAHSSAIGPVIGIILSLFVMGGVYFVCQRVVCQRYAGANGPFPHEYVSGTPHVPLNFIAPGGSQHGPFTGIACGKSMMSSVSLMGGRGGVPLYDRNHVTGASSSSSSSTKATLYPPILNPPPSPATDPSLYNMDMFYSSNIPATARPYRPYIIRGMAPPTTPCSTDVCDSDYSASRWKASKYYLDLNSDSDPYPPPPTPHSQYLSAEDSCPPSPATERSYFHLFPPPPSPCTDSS", "test": "ELISA of EpEX binding to Wnt receptor-coated plates (LRP5)", "procedure": "(§1) For ELISA, wells (at least 6 wells per single protein) were coated with recombinant FZD6 (Proteintech), recombinant FZD7 (Proteintech), recombinant LRP5 (Proteintech), recombinant LRP6 (Proteintech) overnight at 4° C. The wells were then blocked with 1% BSA and treated with EpEX-his (Produced in house by Expi293 Expression System) for 2 hours. Otherwise, EpEX-His was incubated with EpAb2-6 overnight and the complex was used to treat the protein-coated plates for 2 hours. Further anti-His antibody (abeam) was used and TMB was performed to record optical density at 450 nm."}, "recombinant FZD7": {"target": "T2, recombinant FZD7 (Homo sapiens, UniProt O75084)", "T2 construct": "purchased Proteintech", "test": "ELISA of EpEX binding to Wnt receptor-coated plates (FZD7)", "procedure": "as §1"}, "[3]": {"settings": "EpEX-His incubated with antibody overnight"}, "[4]": {"settings": "EpEX-His alone, 2 hours, optical density at 450 nm"}}}
{"molecule": "MT201: adecatumumab, a human anti-EpCAM antibody that was subjected to clinical trials [reference compound]", "values": [{"measurement": "induction of apoptosis", "setting": "[1]; HCT116 cells, 20 μg/mL hEpAb2-6, mEpAb2-6 or MT201 for 24 hrs", "result": "does not have such activity"}, {"measurement": "antibody binding to EpCAM mutants", "setting": "EpCAM", "result": "did not affect MT201 binding"}]}
{"molecule": "B1", "values": [{"measurement": "phosphorylation of TACE and presenilin-2 (PS2)", "setting": "[2]", "result": "increases the phosphorylation"}, {"measurement": "Axin2 expression", "setting": "Axin2", "result": "increased Axin2 expression"}, {"measurement": "γ-secretase activity", "setting": "γ-secretase", "result": "enhanced"}]}
{"molecule": "B2", "values": [{"measurement": "induction of apoptosis", "setting": "[1]; SW620 and HCT116 cells, 20 μg/mL EpAb2-6, LGK974 or the combination for 24 hrs", "result": "could induce apoptosis"}, {"measurement": "EpEX binding to LRP5 after pre-incubation with antibody", "setting": "recombinant LRP5; [3]", "result": "substantially decreased binding"}, {"measurement": "antibody binding to EpCAM mutants", "setting": "EpCAM", "result": "marked reductions in EpAb2-6 binding"}, {"measurement": "EpEX binding to FZD7 after pre-incubation with antibody", "setting": "recombinant FZD7; [3]", "result": "substantially decreased binding"}]}
{"molecule": "B3", "values": [{"measurement": "phosphorylation of TACE and presenilin-2 (PS2)", "setting": "[2]", "result": "increases the phosphorylation"}, {"measurement": "Axin2 expression", "setting": "Axin2", "result": "increased Axin2 expression"}, {"measurement": "γ-secretase activity", "setting": "γ-secretase", "result": "enhanced"}, {"measurement": "EpEX binding to LRP5", "setting": "recombinant LRP5; [4]", "result": "bind with all receptor proteins"}, {"measurement": "EpEX binding to FZD7", "setting": "recombinant FZD7; [4]", "result": "bind with all receptor proteins"}]}
